Experiment: soluble on expression in E. coli; label from the status in PepcDB or PDB records

| Sequence | soluble on expression in E. coli |
| --- | --- |
| MGTFTLHQGQTNLIKSFFRNYYLNAELELPKDMELREFALQPFGSDTYVRHLSFSSSEELRDYLVNRNLPLHLFYSSARYQLPSARNMEEKAWMGSDLLFDIDADHLCKLRSIRFCPVCGNAVVSEKCERDNVETLEYVEMTSECIKRGLEQTRNLVEILEDDFGLKPKVYFSGNRGFHVQVDCYGNCALLDSDERKEIAEYVMGIGVPGYPGGSENAPGWVGRKNRGINGVTIDEQVTIDVKRLIRIPNSLHGKSGLIVKRVPNLDDFEFNETLSPFTGYTIFLPYITIETEVLGSIIKLNRGIPIKIKSSIGIYLHLRNLGEVKAYVR | soluble |
| MGSDKIHHHHHHMSIESILKNRSSTRAFLDKPVTKETLDLIFAHAQLSPSNCNVQPWQTCVVSGQTKDTLKQKFMQTLMSGASPNPDFNWLPQYQGVHRDRQFGSANALYSSIGVAREDKKARQMAMVRNWQFFDAPHAVFFTMDKYLDIMGAVDLGIYAQTLSLIMADHGISNCMQGALGQFPDPVREILNLPAERGILFGMSFGYADDSAAVNNTRTDREPIENAVAFFD | not soluble |
| MFGRQVGRVVFRTASVVVQRRSVSASVPQMVKLVAPSVNFIQTRGSKIEVFGPFDPPKQLTFKQVEDRVLKAVRSWDRFPADKESLLKLDADLSKDFGFDSLDQVEIVMALEDEFGFEIPLQDSDKFKTIRDAFKYICEREDVYE | not soluble |
| SMFNNELMADVHFVVGPPGATRTVPAHKYVLAVGSSVFYAMFYGDLAEVKSEIHIPDVEPAAFLILLKYMYSDEIDLEADTVLATLYAAKKYIVPALAKACVNFLETSL | soluble |
| SVIGRIHSFESCGTVDGPGIRFITFFQGCLMRCLYCHNRDTWDTHGGKEVTVEDLMKEVVTYRHFMNASGGGVTASGGEAILQAEFVRDWFRACKKEGIHTCLDTNGFVRRYDPVIDELLEVTDLVMLDLKQMNDEIHQNLVGVSNHRTLEFAKYLANKNVKVWIRYVVVPGWSDDDDSAHRLGEFTRDMGNVEKIELLPYHELGKHKWVAMGEEYKLDGVKPPKKETMERVKGILEQYGHKVMF | soluble |
| MGSDKIHHHHHHVIIESRIEKGKPVVGMETTVFVHGLPRKEAIELFRRAKEISREKGFQLAVIGILKGKIVAGMSEEELEAMMREGADKVGTREIPIVVAEGKNAATTVSATIFLSRRIGIEVVVTGGTGGVHPGRVDVSQDLTEMSSSRAVLVSSGIKSILDVEATFEMLETLEIPLVGFRTNEFPLFFSRKSGRRVPRIENVEEVLKIYESMKEMELEKTLMVLNPVPEEYEIPHDEIERLLEKIELEVEGKEVTPFLLKKLVEMTNGRTLKANLALLEENVKLAGEIAVKLKRS | soluble |
| MARDEVRRILPADIKREVLIKDENAETNPDWGFPPEKRPIEMHIQFGVINLDKPPGPTSHEVVAWIKKILNLEKAGHGGTLDPKVSGVLPVALEKATRVVQALLPAGKEYVALMHLHGDVPEDKIIQVMKEFEGEIIQRPPLRSAVKRRLRTRKVYYIEVLEIEGRDVLFRVGVEAGTYIRSLIHHIGLALGVGAHMSELRRTRSGPFKEDETLITLHDLVDYYYFWKEDGIEEYFRKAIQPMEKAVEHLPKVWIKDSAVAAVTHGADLAVPGIAKLHAGIKRGDLVAIMTLKDELVALGKAMMTSQEMLEKTKGIAVDVEKVFMPRDWYPKLWEKRDRSHHHHHH | soluble |
| MSLNIFDHYRQRYEAAKDEEFTLQEFLTTCRQDRSAYANAAERLLMAIGEPVMVDTAQDPRLSRLFSNRVIARYPAFEEFYGMEDAIEQIVSYLKHAAQGLEEKKQILYLLGPVGGGKSSLAERLKSLMQLVPIYVLSANGERSPVNDHPFCLFNPQEDAQILEKEYGIPRRYLGTIMSPWAAKRLHEFGGDITKFRVVKVWPSILQQIAIAKTEPGDENNQDISALVGKVDIRKLEHYAQNDPDAYGYSGALCRANQGIMEFVEMFKAPIKVLHPLLTATQEGNYNGTEGISALPFNGIILAHSNKSEWVTFRNNKNNEAFLDRVYIVKVPYCLRISEEIKIYEKLLNHSELTHAPCAPGTLETLSRFSILSRLKEPENSSIYSKMRVYDGESLKDTDPKAKSYQEYRDYAGVDEGMNGLSTRFAFKILSRVFNFDHVEVAANPVHLFYVLEQQIEVYWQEGHHHHHH | not soluble |
| MASTDTYNPTRDDFAAMLDESFAGGNLQESSVIKGKVVAIEKDMAVIDVGLKTEGRVPLREFAGPGRDNEIKVGDTVEVFLDRIENALGEAVLSRDKARREESWGKLEKAFQNNEKVFGVIFNQVKGGFTVDLDGAVAFLPRSQVDIRPIRDVAPLMNNSQPFQILKMDRRRGNIVVSRRTVLEETRAEQRQELVQNLEEGQVIDGVVKNITDYGAFVDLGGIDGLLHVTDIAWRRVNHPTEVLTIGQTVKVKIIKINHETHRISLGMKQLLDDPWQGIEAKYPLNARFTGRVTNITDYGAFVELEPGIEGLIHVSEMSWTKKNMHPGKIVSTSQEVEVQVLEVDSVKRRISLGLKQTMRNPWEVFVEKHPVGSTVEGEVKNKTEFGLFLGLDGDVDGMVHLSDLDWKLPGEQVIDNFKKGDMVKAVVLDVDVEKERISLGVKQLEGDPFAEPGDVKKGAVVTCEVLDVKESGIDVQIVGTDFNTFIKRSELARDRNDQRSDRFAVGEKVDARVIQFDKKARKVQVSIKALEVAEEKEAIAQYGSSDSGATLGDILGTALKQRDKLEHHHHHH | soluble |
| MGSDKIHHHHHHMMNDRDERWDRIAGKLDTLLDRFDRFLDGHIPPPPPDGRLFERHLAFRWRRTGEGGAFLPVEHPHLPDLDDLMGIDLVRDELVRNTGQFVVGYPANNVLLWGERGTGKSTCVKGLLRRFSEEGLRLVEVLRDDLCTLPAIIAPLRKMPQRFILFCDDLSFGEGEGGYRELKVLLEGGIEERPSNILFYATSNRRHLLPERMEDNLGGEIHPEEAVSEKLSLADRFGLNLSFYSFDQDTYLAIVARYAEKFSLPMGGEALRREALQWAIFKGSRSGRSARQFVDDLAGRLRVALPAEK | not soluble |
| MPSYTVTVATGSQWFAGTDDYIYLSLVGSAGCSEKHLLDKPFYNDFERGAVDSYDVTVDEELGEIQLVRIEKRKYWLNDDWYLKYITLKTPHGDYIEFPCYRWITGDVEVVLRDGRAKLARDDQIHILKQHRLKELETRQKQYRWMEWNPGFPLSIDAKCHKDLPRDIQFDSEKGVDFVLNYSKAMENLFINRFMHMFQSSWNDFADFEKIFVKISNTISERVMNHWQEDLMFGYQFLNGCNPVLIRRCTELPEKLPVTTEMVECSLERQLSLEQEVQQGNIFIVDFELLDGIDANKTDPCTLQFLAAPICLLYKNLANKIVPIAIQLNQIPGDENPIFLPSDAKYDWLLAKIWVRSSDFHVHQTITHLLRTHLVSEVFGIAMYRQLPAVHPIFKLLVAHVRFTIAINTKAREQLICECGLFDKANATGGGGHVQMVQRAMKDLTYASLCFPEAIKARGMESKEDIPYYFYRDDGLLVWEAIRTFTAEVVDIYYEGDQVVEEDPELQDFVNDVYVYGMRGRKSSGFPKSVKSREQLSEYLTVVIFTASAQHAAVNFGQYDWCSWIPNAPPTMRAPPPTAKGVVTIEQIVDTLPDRGRSCWHLGAVWALSQFQENELFLGMYPEEHFIEKPVKEAMARFRKNLEAIVSVIAERNKKKQLPYYYLSPDRIPNSVAI | soluble |
| MGSDKIHHHHHHMKNKAESLASSSASILTLGLGWFPKNPGGLERYMYELTHKLAANKDQIELCGVGLPEAERNSPIKLTNLASPDSAIWQRLWSIRTNFQKTRTNKPDAINLHFALYSFPLLDILPKGVPVTFNFHGPWASESQQEVVNKNLSLLIKHHLIEKNTYNHCDRFIVLSKAFGKILHDKYQVPWSKINIIPGGVDINWFQPNLSRQDACKQLGWPNNRRIIFTSRRLVHRTGVDKLLKALAIIKPRIPDVWLAIAGRGHIQAALQQQATELGLDDNVKFLGFLPDEQLPIAYQAAELTIMPSQSFEGFGLVIVESLACGTPVLCTPVGGMPEILSEFSPDLITTSTEASAIAEKLEQVLLGNIPIPSREACRHYAVTHYDWNQIAQQVRNVLLN | not soluble |
| MNIQKAHDVAPPEWLAQVREPALCPGQIIVDPHHHLWDRQGQLYLLPQFLEDQAGDHRIVSTVYVQGRAMYRAGAHALAPVGETEFARGVAAMCASGRYGETRVCDGIVAHADLTQGDGVERVLQAHVEAGGRHFKGIRHMATWDADPALMNPDVAPPPHLLGETRFRRGFAVLDRMGLVFDAWVFHPQLADVVALASAFPDTTIVLNHLGGILNTGSYAGRREAIRADWLASLRELATCPNVYLKLGGLGMRISGFDYPSRPRPPNSTELAADFAPYMLPAIDLFGPERCMFESNFPVDKRSYTYGVLWNAFKRLAADMSQAERDHLFYQTAAKAYRLNLDHIAADMAGDPLEHHHHHH | not soluble |
| MPKRTDIKSILILGAGPIVIGQACEFDYSGAQACKALREEGYRVILVNSNPATIMTDPEMADATYIEPIHWEVVRKIIEKERPDAVLPTMGGQTALNCALELERQGVLEEFGVTMIGATADAIDKAEDRRRFDVAMKKIGLETARSGIAHTMEEALAVAADVGFPCIIRPSFTMGGSGGGIAYNREEFEEICARGLDLSPTKELLIDESLIGWKEYEMEVVRDKNDNCIIVCSIENFDAMGIHTGDSITVAPAQTLTDKEYQIMRNASMAVLREIGVETGGSNVQFAVNPKNGRLIVIEMNPRVSRSSALASKATGFPIAKVAAKLAVGYTLDELMNDITGGRTPASFEPSIDYVVTKIPRFNFEKFAGANDRLTTQMKSVGEVMAIGRTQQESLQKALRGLEVGATGFDPKVSLDDPEALTKIRRELKDAGADRIWYIADAFRAGLSVDGVFNLTNIDRWFLVQIEELVRLEEKVAEVGITGLNADFLRQLKRKGFADARLAKLAGVREAEIRKLRDQYDLHPVYKRVDTCAAEFATDTAYMYSTYEEECEANPSTDREKIMVLGGGPNRIGQGIEFDYCCVHASLALREDGYETIMVNCNPETVSTDYDTSDRLYFEPVTLEDVLEIVRIEKPKGVIVQYGGQTPLKLARALEAAGVPVIGTSPDAIDRAEDRERFQHAVERLKLKQPANATVTAIEMAVEKAKEIGYPLVVRPSYVLGGRAMEIVYDEADLRRYFQTAVSVSNDAPVLLDHFLDDAVEVDVDAICDGEMVLIGGIMEHIEQAGVHSGDSACSLPAYTLSQEIQDVMRQQVQKLAFELQVRGLMNVQFAVKNNEVYLIEVNPRAARTVPFVSKATGVPLAKVAARVMAGKSLAEQGVTKEVIPPYYSVKEVVLPFNKFPGVDPLLGPEMRSTGEVMGVGRTFAEAFAKAQLGSNSTMKKHGRALLSVREGDKERVVDLAAKLLKQGFELDATHGTAIVLGEAGINPRLVNKVHEGRPHIQDRIKNGEYTYIINTTSGRRAIEDSRVIRRSALQYKVHYDTTLNGGFATAMALNADATEKVISVQEMHAQIK | soluble |
| MIDLRKLTEVQRRLSRKIVEKPIDIAKVKRVGAVDVSYKNNFAKAAFVCVEFPSGEIIKTKTIVTTVEFPYIPTFFFLRETKPILLAVKDENFDVLLVEGHGKAHPRRYGLASHIGVILSKPTIGVAKRLLRGVSKDTYVKVGKAFVSVGNLITLNDAVRIVEKLLDENGYPKPLNIADKLSKRGESREKELEHHHHHH | not soluble |
| MEKFLVIAGPNAIESEELLLKVGEEIKRLSEKFKEVEFVFKSSFDKANRSSIHSFRGHGLEYGVKALRKVKEEFGLKITTDIHESWQAEPVAEVADIIQIPAFLCRQTDLLLAAAKTGRAVNVKKGQFLAPWDTKNVVEKLKFGGAKEIYLTERGTTFGYNNLVVDFRSLPIMKQWAKVIYDATHSVQLPGGLGDKSGGMREFIFPLIRAAVAVGCDGVFMETHPEPEKALSDASTQLPLSQLEGIIEAILEIREVASKYYETIPVK | soluble |
| YASRDMDIKRLGKAVMAAAGSPGHFPDVAIPGGVRALPDPQALAELRLPENYEESFEPVPYDGFDMMLTSHGTLDPLGDHVTARSGEERITFDLQTWADHVAESRPGDPAPRPLVHGHPYRVGPYAHGEAMVPRSLAEIRRIIADPRLCEGEFRKESSILSGIGVGAVEGPRGLLVHRYVANEDGVLVDCQILTPTAQNEAWLASMLEASLQQDSDRGVELSVENSIRTANPCLPCSSAPEGHMGVVIEKGN | not soluble |

Source: the DeepSol protein solubility set
